Experimental data taken from patent US20160075789A1 (EDIMER PHARMACEUTICALS, published 2016).

Molecular target: T1, Fc-APRIL (UniProt O75888 105-250, limits assumed)
T1 construct: also called control protein Fc-APRIL; not shown: Fc portion; not described for this construct
T1 sequence (looked up): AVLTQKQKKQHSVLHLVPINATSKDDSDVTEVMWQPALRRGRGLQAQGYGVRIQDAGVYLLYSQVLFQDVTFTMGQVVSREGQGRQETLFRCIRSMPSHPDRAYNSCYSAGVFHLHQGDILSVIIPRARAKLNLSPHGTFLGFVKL
Assay: western blot under reducing conditions

B1: mAbEDA1-EctoD3 (antibody, mouse IgG1, V domains shown)
VH: QVQLHQSGAELARPGASVKLSCKASGYTFTSYGISWVKQRTGQGLEWIGEVYPRSGDTYYHDYFEGKATLTADKSSSTAYMELRSLTSEDSAVYFCARGDYADVWGTGTTVTVSS
VL: DIVLTQSPASLAVSLGQRATISCRASKSVSTFGNSYMLWYQQKPGQPPKLLIYLASNLESGVPARFSGSGSGTDFTLNIHPVEEEDAATYYCQNSRELPYTFGGGTKLEIKR
notes: also called EctoD3-biotin; EctoD3-biot
  binding result: no binding
